Measurements reported in paper PMC9695803.

Target: Human parvovirus B19 major capsid protein VP2 (human parvovirus B19)

Human parvovirus B19 minor capsid protein VP1 (from UniProt Q9PZT0 1-781) (natural protein)
proportion of VP1 in the VP1/VP2 VLP: 5.11%
proportion of VP1 in the VP1h/VP2 VLP: 25.4%
